According to patent publication US20070166286:

What was measured:
Assay in all cases: cell_activity
[1] = system: Cre recombinase (bacteriophage P1); conditions: Ad2HCRGFP/EBV in HepG2, 72 h post infection, moi 1000
[2] = system: Cre-LBD (bacteriophage P1); conditions: type B provirus pk8-ad4332, +tamoxifen; 4.1 without
[3] = system: LBD-Cre-LBD (bacteriophage P1); conditions: type B provirus pk8-ad4626, +tamoxifen; 0.05 without
[4] = system: FLP recombinase; conditions: substrate plasmid ad2879, 293 cells; 4.9 in Table 2 with vector control
[5] = system: FLPe (thermostable FLP); conditions: substrate plasmid ad2879, 293 cells

## loxP site
[1]
  activity (% genomes circularized (or more)): 95
[2]
  activity (arbitrary GFP intensity): 6
[3]
  activity (arbitrary GFP intensity): 4.2

## FRT site
[4]
  activity (mean GFP intensity): 0.01
[5]
  activity (mean GFP intensity): 2.39
